This note sets out measurements from patent publication US20180095066A1 (OXFORD NANOPORE TECHNOLOGIES, published 2018).

The chains are these.
B1: MspA-((Del-L74/G75/D118/L119)D56N/E59R/L88N/D90N/D91N/Q126R/D134R/E139K) monomer (other)
chain: GLDNELSLVDGQDRTLTVQQWDTFLNGVFPLDRNRLTREWFHSGRAKYIVAGPGANEFRGTLELGYQIGFPWSVGINFSYTTPNININNGDITAPPFGLNSVITPNLFPGVSISAGNGPGIREVATFSVRVSGAKGGVAVSNAHGTVTGAAGGVLLRPFARLIASTGDSVTTYGEPWNMN
notes: Pore-forming monomer; Seven copies in MspA 1 (7:1), eight in the homo-oligomer MspA 6; also called untagged monomer of MspA 1; monomer of MspA 6
B2: MspA-(G75S/G77S/L88N/D90N/D91N/D93N/D118R/Q126R/D134R/E139K) monomer (other)
chain: GLDNELSLVDGQDRTLTVQQWDTFLNGVFPLDRNRLTREWFHSGRAKYIVAGPGADEFEGTLELGYQIGFPWSLSVSINFSYTTPNININNGNITAPPFGLNSVITPNLFPGVSISARLGNGPGIREVATFSVRVSGAKGGVAVSNAHGTVTGAAGGVLLRPFARLIASTGDSVTTYGEPWNMN
notes: Made by coupled in vitro transcription and translation (35S-methionine) with rabbit red blood cell membranes; eight copies in the homo-oligomer; also called untagged monomer; untagged version

Data set [1] deals with the molecule itself. The data set can be described thus: 10% TGX gel, coomassie; homo-octamer, broken into monomers at 100 C in 50% DMSO.
Data set [2] deals with the molecule itself. The data set can be described thus: IVTT with rRBCM, 7.5% Tris HCl gel, autoradiography.
For data set [3], the target named is B2. Description: IVTT of mixed DNA (2:1 untagged:tagged) with rRBCM, 7.5% Tris HCl gel, autoradiography.
Data set [4] deals with the molecule itself. The data set can be described thus: IVTT with rRBCM, 5% Tris HCl gel, autoradiography; homo-oligomerisation.
Data set [5] concerns the target B1. Description: co-expression in E. coli, His column, gel filtration, gel; 7:1 hetero-oligomer. (In gel filtration, larger molecules generally elute earlier.)
Data set [6] deals with T1, MspA-((Del-L74/G75/D118/L119)D56N/E59R/L88N/D90N/D91N/N108P/Q126R/D134R/E139K) monomer (Mycobacterium smegmatis, UniProt A0QR29 28-211).
T1 construct: Seven copies in each of the 7:1 pores MspA 2, MspA 3 and MspA 7; also called untagged monomer of MspA 2, MspA 3 and MspA 7
T1 chain: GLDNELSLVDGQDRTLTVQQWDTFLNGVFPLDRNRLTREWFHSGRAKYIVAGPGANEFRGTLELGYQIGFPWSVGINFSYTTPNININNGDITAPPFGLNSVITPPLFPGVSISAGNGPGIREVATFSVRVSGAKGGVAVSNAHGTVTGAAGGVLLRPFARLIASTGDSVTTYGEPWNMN
The data set can be described thus: co-expression under 14 induction conditions, NiNTA batch purification, 10% TGX gel.

Take B1: the binding result in data set [1] was “binds”.

B2: the binding result in data set [2] was “binds”.

B3: MspA-(G75S/G77S/L88N/D90N/D91N/D93N/D118R/Q126R/D134R/E139K/BasTL) monomer (other)
chain: GLDNELSLVDGQDRTLTVQQWDTFLNGVFPLDRNRLTREWFHSGRAKYIVAGPGADEFEGTLELGYQIGFPWSLSVSINFSYTTPNININNGNITAPPFGLNSVITPNLFPGVSISARLGNGPGIREVATFSVRVSGAKGGVAVSNAHGTVTGAAGGVLLRPFARLIASTGDSVTTYGEPWNMNDNQKALEEQMNSINSVNDKLNKGKGKLSLSMNGNQLKATSSNAGYGISYEDKNWGIFVNGEKVYTFNEKSTVGNISNDINKLNIKGPYIEIKKI
notes: also called monomer tagged with full length BasTL
For B3, in data set [3], the binding result is recorded as “binds”.

B4: MspA-(G75S/G77S/L88N/D90N/D91N/D93N/D118R/Q126R/D134R/E139K/D10H6) monomer (other)
chain: GLDNELSLVDGQDRTLTVQQWDTFLNGVFPLDRNRLTREWFHSGRAKYIVAGPGADEFEGTLELGYQIGFPWSLSVSINFSYTTPNININNGNITAPPFGLNSVITPNLFPGVSISARLGNGPGIREVATFSVRVSGAKGGVAVSNAHGTVTGAAGGVLLRPFARLIASTGDSVTTYGEPWNMNDDDDDDDDDDHHHHHH
notes: also called D10H6 tagged monomer
On to B4, for which the binding result in data set [4] is “no binding”.

B5: MspA-((Del-L74/G75/D118/L119)D56N/E59R/L88N/D91N/Q126R/D134R/E139K/BasTL/H6) monomer (other)
chain: GLDNELSLVDGQDRTLTVQQWDTFLNGVFPLDRNRLTREWFHSGRAKYIVAGPGANEFRGTLELGYQIGFPWSVGINFSYTTPNINIDNGDITAPPFGLNSVITPNLFPGVSISAGNGPGIREVATFSVRVSGAKGGVAVSNAHGTVTGAAGGVLLRPFARLIASTGDSVTTYGEPWNMNDNQKALEEQMNSINSVNDKLNKGKGKLSLSMNGNQLKATSSNAGYGISYEDKNWGIFVNGEKVYTFNEKSTVGNISNDINKLNIKGPYIEIKKIHHHHHH
notes: also called tagged monomer of MspA 1
Take B5: the binding result in data set [5] is “binds”.

B6: MspA-((Del-L74/G75/D118/L119)D56N/E59R/L88N/D91N/N108P/Q126R/D134R/E139K/BasTL/H6) monomer (other)
chain: GLDNELSLVDGQDRTLTVQQWDTFLNGVFPLDRNRLTREWFHSGRAKYIVAGPGANEFRGTLELGYQIGFPWSVGINFSYTTPNINIDNGDITAPPFGLNSVITPPLFPGVSISAGNGPGIREVATFSVRVSGAKGGVAVSNAHGTVTGAAGGVLLRPFARLIASTGDSVTTYGEPWNMNDNQKALEEQMNSINSVNDKLNKGKGKLSLSMNGNQLKATSSNAGYGISYEDKNWGIFVNGEKVYTFNEKSTVGNISNDINKLNIKGPYIEIKKIHHHHHH
notes: One copy in MspA 2 (7:1); also called tagged monomer of MspA 2; monomer unit with the BasTL-H6 attached
As for B6, the binding result in data set [6] is “binds”.
